Holding throughout (experiment): BLI
In general terms: Biolayer interferometry detects binding as a change in optical thickness at a sensor tip.

Assay [1] concerns the target H7ssF_B, H7 stabilized HA stem ferritin nanoparticle, design B (influenza A virus A/Shanghai/2/2013 (H7N9) | not stated) (UniProt Q9ZLI1).
Assay [2] has as its target H7ssF_C, H7 stabilized HA stem ferritin nanoparticle, design C (influenza A virus A/Shanghai/2/2013 (H7N9) | not stated) (UniProt Q9ZLI1).
The target of assay [3] is H7ssF_D, H7 stabilized HA stem ferritin nanoparticle, design D (influenza A virus A/Shanghai/2/2013 (H7N9) | not stated) (UniProt Q9ZLI1).
Assay [4] deals with H7ssF_E, H7 stabilized HA stem ferritin nanoparticle, design E (influenza A virus A/Shanghai/2/2013 (H7N9) | not stated) (UniProt Q9ZLI1).
The target in assay [5] is H7ssF_F, H7 stabilized HA stem ferritin nanoparticle, design F (influenza A virus A/Shanghai/2/2013 (H7N9) | not stated) (UniProt Q9ZLI1).
Assay [6] addresses H7ssF_I, H7 stabilized HA stem ferritin nanoparticle, design I (influenza A virus A/Shanghai/2/2013 (H7N9) | not stated) (UniProt Q9ZLI1).
Assay [7] addresses H7ssF_J, H7 stabilized HA stem ferritin nanoparticle, design J (influenza A virus A/Shanghai/2/2013 (H7N9) | not stated) (UniProt Q9ZLI1).

Our source for the Kd, koff and kon values is paper PMC6391921.

By Kd is commonly meant the free concentration of one partner at which half of the binding sites on the other are occupied at equilibrium, for simple one-to-one binding. The koff is the rate constant with which the complex falls apart. Read a low koff as slow dissociation. Usually kon stands for the rate constant with which the complex forms. Low readings indicate slower complex formation, high ones faster complex formation. Consider CT149 Fab, for which the Kd worked out at 7 nM in assay [1]; 0.9 nM in assay [2]; 9 nM in assay [3]; 8.2 nM in assay [4]; 2.7 nM in assay [5]; 7.2 nM in assay [6]. The Kd in assay [7] amounted to 9.8 nM. Besides, the koff in assay [1] is 0.003 s⁻¹; in assay [2] it was 0.00053 s⁻¹; in assay [3], 0.0033 s⁻¹; in assay [4], 0.003 s⁻¹; in assay [5], 0.0018 s⁻¹; in assay [6] it was 0.0029 s⁻¹. Further, the koff in assay [7] was found to be 0.0034 s⁻¹. Also, the kon is 420000 M⁻¹ s⁻¹ in assay [1]; 600000 M⁻¹ s⁻¹ in assay [2]; 370000 M⁻¹ s⁻¹ in assay [3]; 370000 M⁻¹ s⁻¹ in assay [4]; 670000 M⁻¹ s⁻¹ in assay [5]; 410000 M⁻¹ s⁻¹ in assay [6]. The kon in assay [7] turned out to be 350000 M⁻¹ s⁻¹.
